The chains are these.
B1: Segregation and condensation protein A (Bacillus subtilis), P35154 (parent)
chain: MEEYQVKIDTFEGPLDLLLHLINRLEIDIYDIPVAKITEQYLLYVHTMRVLELDIASEYLVMAATLLSIKSRMLLPKQEEELFEDELLEEEDPREELIEKLIEYRKYKDAAKDLKEREEERQKSFTKPPSDLSEYAKEVKQSEQKLSVTVYDMIGAFQKVLKRKKINRPMETTITRQDIPIEARMNEIVHSLKSRGTRINFMDLFPYEQKEHLVVTFLAVLELMKNQLVLIEQEHNFSDIYITGSESIHGA
partner: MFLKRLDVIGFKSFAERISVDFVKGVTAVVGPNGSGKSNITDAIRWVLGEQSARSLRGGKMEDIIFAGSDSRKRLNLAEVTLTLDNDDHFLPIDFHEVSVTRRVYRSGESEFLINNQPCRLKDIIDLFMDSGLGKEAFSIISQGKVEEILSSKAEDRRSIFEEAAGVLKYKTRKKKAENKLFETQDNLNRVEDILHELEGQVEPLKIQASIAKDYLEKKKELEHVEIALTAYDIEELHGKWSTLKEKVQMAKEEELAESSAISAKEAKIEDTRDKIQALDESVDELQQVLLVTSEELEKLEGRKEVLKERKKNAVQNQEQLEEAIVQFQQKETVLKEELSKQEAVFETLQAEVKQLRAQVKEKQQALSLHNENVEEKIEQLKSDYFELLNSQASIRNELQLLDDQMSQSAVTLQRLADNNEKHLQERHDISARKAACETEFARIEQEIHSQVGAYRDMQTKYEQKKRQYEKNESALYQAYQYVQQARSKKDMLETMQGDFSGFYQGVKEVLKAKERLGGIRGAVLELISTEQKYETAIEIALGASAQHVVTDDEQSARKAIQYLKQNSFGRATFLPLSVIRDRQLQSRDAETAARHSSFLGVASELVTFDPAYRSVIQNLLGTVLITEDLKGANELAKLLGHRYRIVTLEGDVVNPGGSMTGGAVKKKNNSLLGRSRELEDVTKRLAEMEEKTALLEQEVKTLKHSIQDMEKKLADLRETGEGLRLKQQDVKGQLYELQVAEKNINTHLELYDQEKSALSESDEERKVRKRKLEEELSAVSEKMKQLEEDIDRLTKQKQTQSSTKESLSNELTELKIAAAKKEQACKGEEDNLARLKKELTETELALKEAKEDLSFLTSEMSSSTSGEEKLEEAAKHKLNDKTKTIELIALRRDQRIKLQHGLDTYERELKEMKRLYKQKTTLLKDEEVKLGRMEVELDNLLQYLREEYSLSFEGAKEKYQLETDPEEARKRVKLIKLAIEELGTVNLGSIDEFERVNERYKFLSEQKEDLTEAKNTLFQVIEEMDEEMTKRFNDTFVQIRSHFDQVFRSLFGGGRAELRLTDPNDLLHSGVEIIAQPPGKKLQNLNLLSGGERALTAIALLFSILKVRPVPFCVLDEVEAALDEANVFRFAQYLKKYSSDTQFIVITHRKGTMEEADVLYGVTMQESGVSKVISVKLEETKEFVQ
B2: Chromosome partition protein Smc (Bacillus subtilis), P51834 (parent)
chain: B1 partner
partner: B1 chain

The values that follow come from IntAct's records for PubMed 23353789.

One assay covers variants of B1. Conditions: with smc_bacsu smc.
With L67E, the “effect of a mutation on the interaction” value was “disrupting interaction strength”.

Regarding K70E, the “effect of a mutation on the interaction” value is on record as “disrupting interaction strength”.

As to L60K, the “effect of a mutation on the interaction” value is given as “disrupting interaction strength”.

The next assay covers variants of B2. To be noted: with scpa_bacsu scpA.
With Y170E, the “effect of a mutation on the interaction” value is “decreasing interaction strength”.

V1021E: the “effect of a mutation on the interaction” value was “disrupting interaction strength”.

Variants of B2 are the subject of another assay. Conditions: with scpa_bacsu scpA. The source holds these as a separate data set.
For I1174E, the “effect of a mutation on the interaction” value is reported as “disrupting interaction strength”.

For the variant V1176E, the “effect of a mutation on the interaction” value is listed as “disrupting interaction strength”.
